The results in this text go back to article PMC3852661, “Structural basis of SUFU–GLI interaction in human Hedgehog signalling regulation” (Acta Crystallographica Section D: Biological Crystallography, 2013).

B3: MBP-SUFU-FL (domain or fragment, human, UniProt Q9UMX1 32-483, looked up)
chain: PGLHAIYGECRRLYPDQPNPLQVTAIVKYWLGGPDPLDYVSMYRNVGSPSANIPEHWHYISFGLSDLYGDNRVHEFTGTDGPSGFGFELTFRLKRETGESAPPTWPAELMQGLARYVFQSENTFCSGDHVSWHSPLDNSESRIQHMLLTEDPQMQPVQTPFGVVTFLQIVGVCTEELHSAQQWNGQGILELLRTVPIAGGPWLITDMRRGETIFEIDPHLQERVDKGIETDGSNLSGVSAKCAWDDLSRPPEDDEDSRSICIGTQPRRLSGKDTEQIRETLRRGLEINSKPVLPPINPQRQNGLAHDRAPSRKDSLESDSSTAIIPHELIRTRQLESVHLKFNQESGALIPLCLRGRLLHGRHFTYKSITGDMAITFVSTGVEGAFATEEHPYAAHGPWLQILLTEEFVEKMLEDLEDLTSPEEFKLPKEYSWPEKKLKVSILPDVVFDSPL
notes: human SUFU (Suppressor of fused), residues 32-483, called essentially full length; MBP is joined to SUFU by a three-alanine linker; vector pLJMBP4c (Monné et al., 2008); also called SUFU_(32–483); source: E. coli JM109 (DE3), purified (HisTrap, SEC); not shown: MBP, N-terminal, kept
B4: GLI1p (peptide, UniProt P08151 115-131, looked up)
peptide: TSPGGSYGHLSIGTMSP
notes: human GLI1, residues 115-131, holds the SYGH motif; also called human GLI1-derived peptide; source: synthetic peptide (Dr W. Mawby, University of Bristol)

Settings in all cases: both partners purified
The data set “GLI1p” addresses B4. As to the kind of experiment: thermal stability assay (SYPRO Orange); 2.2 µM MBP-SUFU protein with 44 µM peptide; 50 mM Na HEPES pH 7.0, 50 mM NaCl, 5 mM β-mercaptoethanol; heated from 20 to 90°C; triplicate.
For data set [1], the target named is B3. As to the kind of experiment: HDX-MS; MBP-SUFU-FL with a 5.5-fold excess of GLI3p, incubated 1 h; exchange 300, 600 and 1800 s at 4°C; 50 mM Na HEPES pH 7.0, 50 mM NaCl, 5 mM β-mercaptoethanol, 1.5 mM maltose.
Data set [2] has as its target T1, MBP_(A216H_K220H)-SUFU-Δ_(W61D_L62S_G63F_P453A_Δ454–456_K457A) (human, UniProt Q9UMX1 32-278; Q9UMX1 361-483, W61D | L62S | G63F | P453A | Δ454–456 | K457A).
T1 construct: human SUFU, residues 32-278, WLG61-63 mutated to DSF; heptamer that replaces amino acids 279-360 (the IDR), as in MBP-SUFU-Δ; human SUFU, residues 361-483, a flexible loop shortened; Derived from MBP-SUFU-Δ; residues 216 and 220 of the MBP moiety mutated to histidine; crystallised with zinc acetate and maltose; source: E. coli JM109 (DE3), purified (HisTrap, SEC); not shown: MBP (A216H, K220H), …
T1 sequence: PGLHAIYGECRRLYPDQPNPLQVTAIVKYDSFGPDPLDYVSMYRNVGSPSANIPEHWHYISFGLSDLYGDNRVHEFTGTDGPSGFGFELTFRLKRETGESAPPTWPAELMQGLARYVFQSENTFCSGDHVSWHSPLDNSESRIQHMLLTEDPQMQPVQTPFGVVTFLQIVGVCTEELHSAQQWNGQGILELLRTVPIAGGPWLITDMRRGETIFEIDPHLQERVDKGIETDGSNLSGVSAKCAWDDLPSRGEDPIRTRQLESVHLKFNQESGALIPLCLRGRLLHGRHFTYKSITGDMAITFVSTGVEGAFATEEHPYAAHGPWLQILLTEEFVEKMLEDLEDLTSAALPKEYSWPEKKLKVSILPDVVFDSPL
As to the kind of experiment: crystal structure; co-crystals of the MBP-SUFU-Δ variant with zinc acetate (1:1) and GLI1p or GLI3p (1:4); hanging drop, 4°C, PEG 3350, sodium formate.

In data set [3] the target is B3. As to the kind of experiment: MST; 50 nM FAM-GLI1p, MBP-SUFU constructs titrated (14.2–29 070 and 54–110 500 nM); 50 mM Tris–HCl pH 7.6, 150 mM NaCl, 10 mM MgCl2, 0.05% Tween-20; three independent measurements.

Where no end group is shown, it is not given here. The star is where a group is joined. 5FAM = O=C1OC2(c3ccc(O)cc3Oc3cc(O)ccc32)c2ccc(C(=O)*)cc21

B1: MBP-SUFU-Δ (domain or fragment, human)
chain: PGLHAIYGECRRLYPDQPNPLQVTAIVKYWLGGPDPLDYVSMYRNVGSPSANIPEHWHYISFGLSDLYGDNRVHEFTGTDGPSGFGFELTFRLKRETGESAPPTWPAELMQGLARYVFQSENTFCSGDHVSWHSPLDNSESRIQHMLLTEDPQMQPVQTPFGVVTFLQIVGVCTEELHSAQQWNGQGILELLRTVPIAGGPWLITDMRRGETIFEIDPHLQERVDKGIETDGSNLSGVSAKCAWDDLPSRGEDPIRTRQLESVHLKFNQESGALIPLCLRGRLLHGRHFTYKSITGDMAITFVSTGVEGAFATEEHPYAAHGPWLQILLTEEFVEKMLEDLEDLTSPEEFKLPKEYSWPEKKLKVSILPDVVFDSPL
notes: human SUFU, residues 32-278; heptamer that replaces amino acids 279-360 (the IDR); human SUFU, residues 361-483; Same frame as MBP-SUFU-FL (three-alanine linker after MBP); source: E. coli JM109 (DE3), purified (HisTrap, SEC); not shown: MBP, N-terminal, kept
Turning to B1, the “Tm shift on addition of GLI1p” value with GLI1p came out at 3.6 °C.

SSASGSYGHLSASAISP (peptide, UniProt P10071 328-344, looked up, human GLI3, residues 328-344) [GLI3p]: the binding result (in the data set with MBP-SUFU-FL [1]; in data set [2]) was “binds” throughout.

B2: FAM-GLI1p (peptide, UniProt P08151 115-131, looked up)
peptide: 5FAM-TSPGGSYGHLSIGTMSP
notes: human GLI1, residues 115-131; also called 5-FAM-labelled peptide; FAM-labelled GLI1p peptide; source: synthetic peptide (Pepceuticals Ltd)
With B2, in the data set with MBP-SUFU-FL [3], the binding result was “binds”.

B3: in the data set with GLI1p, the “Tm shift on addition of GLI1p” value stood at 4 °C.

Regarding B4, the binding result in data set [2] is recorded as “binds”.
